Assay results as given in paper PMC9470675 (Signal Transduction and Targeted Therapy, 2022).

B1: recombinant MASP-2 (purified) (enzyme, human, UniProt O00187 16-686, looked up)
chain: TPLGPKWPEPVFGRLASPGFPGEYANDQERRWTLTAPPGYRLRLYFTHFDLELSHLCEYDFVKLSSGAKVLATLCGQESTDTERAPGKDTFYSLGSSLDITFRSDYSNEKPFTGFEAFYAAEDIDECQVAPGEAPTCDHHCHNHLGGFYCSCRAGYVLHRNKRTCSALCSGQVFTQRSGELSSPEYPRPYPKLSSCTYSISLEEGFSVILDFVESFDVETHPETLCPYDFLKIQTDREEHGPFCGKTLPHRIETKSNTVTITFVTDESGDHTGWKIHYTSTAQPCPYPMAPPNGHVSPVQAKYILKDSFSIFCETGYELLQGHLPLKSFTAVCQKDGSWDRPMPACSIVDCGPPDDLPSGRVEYITGPGVTTYKAVIQYSCEETFYTMKVNDGKYVCEADGFWTSSKGEKSLPVCEPVCGLSARTTGGRIYGGQKAKPGDFPWQVLILGGTTAAGALLYDNWVLTAAHAVYEQKHDASALDIRMGTLKRLSPHYTQAWSEAVFIHEGYTHDAGFDNDIALIKLNNKVVINSNITPICLPRKEAESFMRTDDIGTASGWGLTQRGFLARNLMYVDIPIVDHQKCTAAYEKPPYPRGSVTANMLCAGLESGGKDSCRGDSGGALVFLDSETERWFVGGIVSWGSMNCGEAGQYGVYTKVINYIPWIENIISDF
notes: also called Purified MASP-2

Legend:
[1] = target: B1; experiment: SPR; purified proteins; who was immobilised and the conditions not given; settings: both partners purified
[2] = target: Purified SARS-CoV-2 N-His (SARS-CoV-2, UniProt P0DTC9 1-419); experiment: as above; settings: both partners purified

| Binder | Kd [1] [nM] | Kd [2] [nM] |
| --- | --- | --- |
| SARS-CoV N protein (purified recombinant) (natural protein) not shown | 268 | – |
| B1 | – | 518 |
